Laboratory results: paper PMC6736649

What was measured:
Test in all cases: ITC
FEZ1_(92–198) (human) = FEZ1_(92–198) (human) (UniProt Q99689)
FEZ1_(178–188) (human) = target: FEZ1_(178–188) (human)
[1] = target: FEZ1_(92–198 182EA) (human) (UniProt Q99689)

“Disulfide-crosslinked CA (A14C/E45C) hexamer (complex)” showed a Kd (FEZ1_(92–198) (human)) of 300 nM, a stoichiometry N (CA hexamer to FEZ1) (FEZ1_(92–198) (human)) of 1.3 and a Kd (FEZ1_(178–188) (human)) of 180 nM. It also gave a stoichiometry N (CA hexamer to FEZ1 (178–188)) (FEZ1_(178–188) (human)) of 1 and a stoichiometry N (CA hexamer to FEZ1) [1] of 1.6.
